Measurements taken from patent US20110172168A1 (MEDIGENE, published 2011).
Positions count from the first letter of the chain named. One block for each binder: values may come before it.

Target: T1, CEA-derived … (SEQ ID NO: 71)-HLA-A*0201 complex (biotin on the C-terminal biotinylation tag (enzymatic, BirA))
T1 construct: also called soluble biotinylated HLA-A2-peptide complex; not shown: C-terminal biotinylation tag that replaces the transmembrane and cytoplasmic domains
Test: Biacore SPR, pMHC immobilised
Description: SPR measures changes in refractive index expressed in response units (RU) near a sensor surface within a small flow cell, a principle that can be used to detect receptor ligand interactions and to analyse their affinity and kinetic parameters. The probe flow cells were prepared by immobilising the pMHC complexes in flow cells via biotin-tag binding. The assay was then performed by passing soluble ILT over the surfaces of the different flow cells at a constant flow rate, measuring the SPR response in doing so.

Kd: ~6000 nM | koff: 2.4 s⁻¹
B1: soluble truncated variant of the Wild-Type ILT-2 molecule (receptor)
chain: MGHLPKPTLWAEPGSVITQGSPVTLRCQGGQETQEYRLYREKKTAPWITRIPQELVKKGQFPIPSITWEHAGRYRCYYGSDTAGRSESSDPLELVVTGAYIKPTLSAQPSPVVNSGGNVTLQCDSQVAFDGFILCKEGEDEHPQCLNSQPHARGSSRAIFSVGPVSPSRRWWYRCYAYDSNSPYEWSLPSDLLELLVL
notes: also called soluble wild-type ILT-2; soluble two domain form of the wild-type ILT-2

Kd: ≤ 1000 nM | koff: ≤ 2 s⁻¹
B2: SEQ ID NO 7 (receptor)
chain: MAGHLPKPTLWAEPGSVITMDQPVTLRCQGGQETQEYRLYREKKTAPWITRIPQELVKKGQFPIPSITWEHAGRYRCYYGSDTSQWSASSDPLELVVTGVYIKPTLSAQPSPVVNSGGNVTLQCDSQVAFDGFILCKEGEDEHPQCLNSQPHARGSSRAIFSVGPVSPSRRWWYRCYAYPIWTPYEWSLPSDLLELDVDG

Kd: ≤ 1000 nM | koff: ≤ 2 s⁻¹
B3: SEQ ID NO 47 (receptor)
chain: B2 chain with P180M, I181S, W182N, T183A

Kd: ≤ 1000 nM | koff: ≤ 2 s⁻¹
B4: SEQ ID NO 20 (receptor)
chain: B2 chain with I181D, W182F

Kd: ≤ 1000 nM | koff: ≤ 2 s⁻¹
B5: SEQ ID NO 54 (receptor)
chain: B2 chain with L189T, P190S

Kd: ≤ 1000 nM | koff: ≤ 2 s⁻¹
B6: SEQ ID NO 53 (receptor)
chain: B2 chain with S188T, L189R, P190G

Kd: ≤ 1000 nM | koff: ≤ 2 s⁻¹
B7: SEQ ID NO 38 (receptor)
chain: B2 chain with M20Q, D21G, Q22S, P180M, I181S, T183A

Kd: ≤ 1000 nM | koff: ≤ 2 s⁻¹
B8: SEQ ID NO 23 (receptor)
chain: B2 chain with P180V, I181E, T183L

Kd: ≤ 1000 nM | koff: ≤ 2 s⁻¹
B9: SEQ ID NO 30 (receptor)
chain: B2 chain with M20Q, D21G, Q22S

Kd: ≤ 1000 nM | koff: ≤ 2 s⁻¹
B10: SEQ ID NO 14 (receptor)
chain: B2 chain with G3Q, A129D, P180D, I181S, W182N, T183S

Kd: ≤ 1000 nM | koff: ≤ 2 s⁻¹
B11: SEQ ID NO 45 (receptor)
chain: B2 chain with P180M, I181S, W182N, T183S

Kd: ≤ 1000 nM | koff: ≤ 2 s⁻¹
B12: SEQ ID NO 46 (receptor)
chain: B2 chain with P180D, I181S, T183S

Kd: ≤ 1000 nM | koff: ≤ 2 s⁻¹
B13: SEQ ID NO 15 (receptor)
chain: B2 chain with G3Q, A129S, P180D, I181S, W182N, T183S

Kd: ≤ 1000 nM | koff: ≤ 2 s⁻¹
B14: SEQ ID NO 8 (receptor)
chain: B2 chain with P180V, I181A, T183A

Kd: ≤ 1000 nM | koff: ≤ 2 s⁻¹
B15: SEQ ID NO 17 (receptor)
chain: B2 chain with G3Q, F130Y, P180D, I181S, W182N, T183S

Kd: ≤ 1000 nM | koff: ≤ 2 s⁻¹
B16: SEQ ID NO 16 (receptor)
chain: B2 chain with G3Q, A129T, P180D, I181S, W182N, T183S

Kd: ≤ 1000 nM | koff: ≤ 2 s⁻¹
B17: SEQ ID NO 36 (receptor)
chain: B2 chain with M20Q, D21G, Q22S, I181A

Kd: ≤ 1000 nM | koff: ≤ 2 s⁻¹
B18: SEQ ID NO 58 (receptor)
chain: B2 chain with P180D, I181S, W182N, T183S, L189Q, P190M

Kd: ≤ 1000 nM | koff: ≤ 2 s⁻¹
B19: SEQ ID NO 56 (receptor)
chain: B2 chain with S188T, P190G

Kd: ≤ 1000 nM | koff: ≤ 2 s⁻¹
B20: SEQ ID NO 55 (receptor)
chain: B2 chain with L189S, P190G

Kd: ≤ 1000 nM | koff: ≤ 2 s⁻¹
B21: SEQ ID NO 52 (receptor)
chain: B2 chain with L189Q, P190M

Kd: ≤ 1000 nM | koff: ≤ 2 s⁻¹
B22: SEQ ID NO 57 (receptor)
chain: B2 chain with P180D, I181S, W182N, T183S, S188T, L189R, P190G

Kd: ≤ 1000 nM | koff: ≤ 2 s⁻¹
B23: SEQ ID NO 10 (receptor)
chain: B2 chain with P180T, I181D, W182Y, T183S

Kd: ≤ 1000 nM | koff: ≤ 2 s⁻¹
B24: SEQ ID NO 40 (receptor)
chain: B2 chain with M20Q, D21G, Q22S, P180M, I181S, T183S

Kd: ≤ 1000 nM | koff: ≤ 2 s⁻¹
B25: SEQ ID NO 51 (receptor)
chain: B2 chain with P190G

Kd: ≤ 1000 nM | koff: ≤ 2 s⁻¹
B26: SEQ ID NO 34 (receptor)
chain: B2 chain with M20Q, D21G, Q22S, P180M, I181N, T183A

Kd: ≤ 1000 nM | koff: ≤ 2 s⁻¹
B27: SEQ ID NO 48 (receptor)
chain: B2 chain with P180D, I181S, T183A

Kd: ≤ 1000 nM | koff: ≤ 2 s⁻¹
B28: SEQ ID NO 32 (receptor)
chain: B2 chain with M20Q, D21G, Q22S, P180V, I181A, T183A

Kd: ≤ 1000 nM | koff: ≤ 2 s⁻¹
B29: SEQ ID NO 12 (receptor)
chain: B2 chain with P180V, I181S, W182Y, T183W

Kd: ≤ 1000 nM | koff: ≤ 2 s⁻¹
B30: SEQ ID NO 44 (receptor)
chain: B2 chain with I181A, W182Y

Kd: ≤ 1000 nM | koff: ≤ 2 s⁻¹
B31: SEQ ID NO 18 (receptor)
chain: B2 chain with P180M, I181S, T183A

Kd: ≤ 1000 nM | koff: ≤ 2 s⁻¹
B32: SEQ ID NO 43 (receptor)
chain: B2 chain with P180M, I181S, W182Y, T183S

Kd: ≤ 1000 nM | koff: ≤ 2 s⁻¹
B33: SEQ ID NO 9 (receptor)
chain: B2 chain with P180M, I181N, T183A

Kd: ≤ 1000 nM | koff: ≤ 2 s⁻¹
B34: SEQ ID NO 59 (receptor)
chain: B2 chain with P180D, I181S, W182N, T183S, L189S, P190G

Kd: ≤ 1000 nM | koff: ≤ 2 s⁻¹
B35: SEQ ID NO 21 (receptor)
chain: B2 chain with I181W, W182F

Kd: ≤ 1000 nM | koff: ≤ 2 s⁻¹
B36: SEQ ID NO 13 (receptor)
chain: B2 chain with I181A

Kd: ≤ 1000 nM | koff: ≤ 2 s⁻¹
B37: SEQ ID NO 11 (receptor)
chain: B2 chain with P180V, I181D, T183F

Kd: ≤ 1000 nM | koff: ≤ 2 s⁻¹
B38: SEQ ID NO 68 (receptor)
chain: MGHLPKPTLWAEPGSVITMDQPVTLRCQGGQETQEYRLYREKKTAPWITRIPQELVKKGQFPIPSITWEHAGRYRCYYGSDTSQWSASSDPLELVVTGVYIKPTLSAQPSPVVNSGGNVTLQCDSPFIADGFILCKEGEDEHPQCLNSQPHARGSSRAIFSVGPVSPSRRWWYRCYAYMSWSPYEWSLPSDLLELDVDG

Kd: ≤ 1000 nM | koff: ≤ 2 s⁻¹
B39: SEQ ID NO 39 (receptor)
chain: B38 chain with S83A, Q84G, W85R, A87E, P126Q, F127V, I128A, A129F, S182A

Kd: ≤ 1000 nM | koff: ≤ 2 s⁻¹
B40: SEQ ID NO 35 (receptor)
chain: B38 chain with S83A, Q84G, W85R, A87E, P126Q, F127V, I128A, A129F, S180N, S182A

Kd: ≤ 1000 nM | koff: ≤ 2 s⁻¹
B41: SEQ ID NO 62 (receptor)
chain: B38 chain with I128L, A129T

Kd: ≤ 1000 nM | koff: ≤ 2 s⁻¹
B42: SEQ ID NO 33 (receptor)
chain: MGHLPKPTLWAEPGSVITMDQPVTLRCQGGQETQEYRLYREKKTAPWITRIPQELVKKGQFPIPSITWEHAGRYRCYYGSDTAGRSESSDPLELVVTGVYIKPTLSAQPSPVVNSGGNVTLQCDSQVAFDGFILCKEGEDEHPQCLNSQPHARGSSRAIFSVGPVSPSRRWWYRCYAYVAWAPYEWSLPSDLLELDVDG

Kd: ≤ 1000 nM | koff: ≤ 2 s⁻¹
B43: SEQ ID NO 37 (receptor)
chain: B42 chain with V179P, A182T

Kd: ≤ 1000 nM | koff: ≤ 2 s⁻¹
B44: SEQ ID NO 61 (receptor)
chain: B38 chain with F127W, I128V

Kd: ≤ 1000 nM | koff: ≤ 2 s⁻¹
B45: SEQ ID NO 41 (receptor)
chain: B42 chain with V179M, A180S, A182S

Kd: ≤ 1000 nM | koff: ≤ 2 s⁻¹
B46: SEQ ID NO 64 (receptor)
chain: B38 chain with I128Q

Kd: ≤ 1000 nM | koff: ≤ 2 s⁻¹
B47: SEQ ID NO 63 (receptor)
chain: B38 chain with F127W, I128L

Kd: ≤ 1000 nM | koff: ≤ 2 s⁻¹
B48: SEQ ID NO 31 (receptor)
chain: B42 chain with V179P, A180I, A182T
